In US6225121 one finds activity data, which are given here for one substance.

The test system of the data set is T1, Minos transposase (Minos-2) (Drosophila hydei).
T1 sequence: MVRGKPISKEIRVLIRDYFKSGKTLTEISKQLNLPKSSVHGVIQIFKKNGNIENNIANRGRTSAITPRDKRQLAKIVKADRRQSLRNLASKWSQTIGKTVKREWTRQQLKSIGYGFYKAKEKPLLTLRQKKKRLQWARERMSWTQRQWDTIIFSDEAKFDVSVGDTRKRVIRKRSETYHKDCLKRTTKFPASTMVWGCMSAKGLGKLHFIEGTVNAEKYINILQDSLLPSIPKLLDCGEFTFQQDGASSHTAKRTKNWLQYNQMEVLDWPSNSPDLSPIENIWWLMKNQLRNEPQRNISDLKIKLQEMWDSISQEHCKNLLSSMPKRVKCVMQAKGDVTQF
As to the kind of experiment: cell_activity. To be noted: HeLa stable transfectants vs transposon alone, experiment 1 (18-fold and 14.5-fold in experiments 2 and 3); source Minos copy of helper not stated; binding not ….

As for “Minos transposon with both terminal inverted repeats, neo cargo (pMiLRneo)”, the activity came out at 19 fold.
